Here are results for six molecules from paper doi:10.1101/2025.08.07.669073 (bioRxiv, 2025).

Assay [1] concerns the target human ATP13A1 mutated at the border between the membrane region and the ER lumen (human) (UniProt Q9HD20). Description: co-IP.
The target of assay [2] is yeast EMC with Emc5-GFP, Emc10 deleted (S. cerevisiae) (UniProt P25574). Description: co-IP.
Assay [3] concerns the target yeast EMC with Emc5-GFP, Emc7 deleted (S. cerevisiae, UniProt P25574;P47133;P36039;P53073;P40540;Q12431;Q12025). Put plainly: co-IP.
The target of assay [4] is yeast EMC with Emc5-TSII, recombinant from insect cells (S. cerevisiae) (UniProt P25574). Put plainly: co-IP.
The target of assay [5] is T1, yeast Spf1-FLAG, recombinant from insect cells (S. cerevisiae, UniProt P39986).
T1 sequence: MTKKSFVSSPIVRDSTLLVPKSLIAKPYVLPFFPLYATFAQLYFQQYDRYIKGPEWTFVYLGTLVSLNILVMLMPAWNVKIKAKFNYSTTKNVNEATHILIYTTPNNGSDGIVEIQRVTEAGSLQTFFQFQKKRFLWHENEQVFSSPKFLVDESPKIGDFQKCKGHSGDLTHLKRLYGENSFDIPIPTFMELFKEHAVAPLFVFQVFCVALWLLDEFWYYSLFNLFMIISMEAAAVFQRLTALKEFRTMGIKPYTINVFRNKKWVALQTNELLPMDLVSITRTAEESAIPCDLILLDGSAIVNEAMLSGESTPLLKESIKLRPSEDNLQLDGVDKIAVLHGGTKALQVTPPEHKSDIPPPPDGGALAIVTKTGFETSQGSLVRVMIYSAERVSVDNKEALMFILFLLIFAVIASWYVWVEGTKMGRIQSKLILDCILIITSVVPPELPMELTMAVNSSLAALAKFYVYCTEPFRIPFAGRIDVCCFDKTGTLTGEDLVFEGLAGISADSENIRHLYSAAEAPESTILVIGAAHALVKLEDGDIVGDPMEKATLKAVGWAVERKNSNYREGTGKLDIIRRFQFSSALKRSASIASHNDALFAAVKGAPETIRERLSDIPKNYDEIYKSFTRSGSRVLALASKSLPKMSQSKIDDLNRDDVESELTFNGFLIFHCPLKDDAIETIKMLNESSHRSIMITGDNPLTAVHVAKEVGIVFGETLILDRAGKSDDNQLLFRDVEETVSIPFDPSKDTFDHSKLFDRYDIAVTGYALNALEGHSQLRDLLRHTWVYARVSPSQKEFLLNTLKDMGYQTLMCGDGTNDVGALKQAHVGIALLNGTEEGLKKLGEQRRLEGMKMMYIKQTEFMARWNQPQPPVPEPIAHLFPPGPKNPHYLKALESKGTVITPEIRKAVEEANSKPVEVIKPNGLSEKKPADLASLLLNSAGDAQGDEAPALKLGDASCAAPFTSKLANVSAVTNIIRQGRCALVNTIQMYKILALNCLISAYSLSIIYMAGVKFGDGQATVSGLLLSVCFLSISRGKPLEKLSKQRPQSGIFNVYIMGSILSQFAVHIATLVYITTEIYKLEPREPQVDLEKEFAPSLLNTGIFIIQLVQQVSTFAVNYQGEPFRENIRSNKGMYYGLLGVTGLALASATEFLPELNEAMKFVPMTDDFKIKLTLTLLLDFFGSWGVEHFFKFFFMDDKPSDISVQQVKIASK
Description: cryo-EM structure.

Chain of human ATP13A1 mutated at the border between the membrane region and the ER lumen (human) (Q9HD20 whole entry, stated change not applied): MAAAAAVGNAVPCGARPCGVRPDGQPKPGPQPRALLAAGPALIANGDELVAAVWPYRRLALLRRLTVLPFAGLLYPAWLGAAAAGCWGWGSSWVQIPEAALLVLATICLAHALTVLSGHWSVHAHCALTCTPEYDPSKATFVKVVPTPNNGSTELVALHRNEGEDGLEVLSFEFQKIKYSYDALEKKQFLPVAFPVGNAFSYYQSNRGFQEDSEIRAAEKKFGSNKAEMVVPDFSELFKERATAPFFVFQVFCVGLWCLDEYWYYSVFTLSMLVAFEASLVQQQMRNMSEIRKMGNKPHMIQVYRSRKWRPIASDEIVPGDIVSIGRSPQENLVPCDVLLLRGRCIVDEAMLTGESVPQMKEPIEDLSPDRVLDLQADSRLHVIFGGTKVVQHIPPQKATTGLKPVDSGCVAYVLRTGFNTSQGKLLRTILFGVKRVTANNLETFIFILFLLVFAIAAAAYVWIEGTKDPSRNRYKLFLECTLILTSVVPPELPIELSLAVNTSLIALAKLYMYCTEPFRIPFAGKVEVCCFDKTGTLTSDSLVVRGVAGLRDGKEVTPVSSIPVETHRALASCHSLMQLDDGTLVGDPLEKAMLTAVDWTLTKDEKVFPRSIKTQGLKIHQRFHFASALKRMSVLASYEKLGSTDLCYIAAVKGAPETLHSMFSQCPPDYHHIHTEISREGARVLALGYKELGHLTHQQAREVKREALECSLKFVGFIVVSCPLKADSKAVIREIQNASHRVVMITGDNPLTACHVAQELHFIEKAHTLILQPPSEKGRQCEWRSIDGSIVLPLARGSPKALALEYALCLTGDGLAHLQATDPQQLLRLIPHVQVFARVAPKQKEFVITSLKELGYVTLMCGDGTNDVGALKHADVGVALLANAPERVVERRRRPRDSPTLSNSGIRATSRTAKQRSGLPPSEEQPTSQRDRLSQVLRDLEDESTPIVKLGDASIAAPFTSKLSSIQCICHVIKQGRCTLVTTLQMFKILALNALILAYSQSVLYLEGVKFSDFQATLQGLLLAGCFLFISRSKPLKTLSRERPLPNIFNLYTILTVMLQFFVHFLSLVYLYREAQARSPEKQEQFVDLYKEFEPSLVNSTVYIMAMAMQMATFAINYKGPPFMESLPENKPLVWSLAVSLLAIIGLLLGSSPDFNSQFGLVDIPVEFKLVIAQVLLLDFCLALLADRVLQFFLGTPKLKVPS
Chain of yeast EMC with Emc5-GFP, Emc7 deleted (P25574 25-760, stated change not applied, chain 1 of 4): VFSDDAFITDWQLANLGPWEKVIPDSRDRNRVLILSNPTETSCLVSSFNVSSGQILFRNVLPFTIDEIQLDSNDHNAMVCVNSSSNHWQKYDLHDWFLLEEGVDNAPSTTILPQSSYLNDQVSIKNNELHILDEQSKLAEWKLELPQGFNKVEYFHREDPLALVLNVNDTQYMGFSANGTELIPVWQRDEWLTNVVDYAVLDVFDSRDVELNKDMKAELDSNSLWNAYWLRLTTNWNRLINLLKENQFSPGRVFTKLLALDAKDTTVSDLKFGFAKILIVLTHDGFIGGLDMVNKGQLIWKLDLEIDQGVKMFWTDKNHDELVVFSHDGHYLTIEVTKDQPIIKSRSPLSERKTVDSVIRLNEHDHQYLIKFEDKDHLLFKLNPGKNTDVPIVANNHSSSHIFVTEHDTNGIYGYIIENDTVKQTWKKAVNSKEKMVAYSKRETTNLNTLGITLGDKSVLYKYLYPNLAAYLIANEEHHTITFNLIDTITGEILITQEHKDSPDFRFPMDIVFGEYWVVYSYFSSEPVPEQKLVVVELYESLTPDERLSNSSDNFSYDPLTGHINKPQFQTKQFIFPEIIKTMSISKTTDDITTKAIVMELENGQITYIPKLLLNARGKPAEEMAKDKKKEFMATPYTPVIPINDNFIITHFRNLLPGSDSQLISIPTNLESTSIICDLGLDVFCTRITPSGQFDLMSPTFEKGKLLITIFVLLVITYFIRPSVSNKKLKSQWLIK
Chain of yeast EMC with Emc5-GFP, Emc7 deleted (P47133 whole entry, stated change not applied, chain 2 of 4): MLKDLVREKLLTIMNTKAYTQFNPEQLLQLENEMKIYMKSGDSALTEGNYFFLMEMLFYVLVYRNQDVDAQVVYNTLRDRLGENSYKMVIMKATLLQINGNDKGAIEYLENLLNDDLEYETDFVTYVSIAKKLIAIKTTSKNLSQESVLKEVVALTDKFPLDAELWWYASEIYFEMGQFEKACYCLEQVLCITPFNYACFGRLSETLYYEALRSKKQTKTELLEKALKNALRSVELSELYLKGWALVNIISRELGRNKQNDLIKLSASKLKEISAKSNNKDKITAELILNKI
Chain of yeast EMC with Emc5-GFP, Emc7 deleted (P40540 whole entry, stated change not applied, chain 5 of 4): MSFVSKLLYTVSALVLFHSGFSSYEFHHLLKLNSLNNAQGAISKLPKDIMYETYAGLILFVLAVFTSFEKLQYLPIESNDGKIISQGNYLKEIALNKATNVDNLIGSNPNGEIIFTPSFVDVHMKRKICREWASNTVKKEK
Chain of yeast EMC with Emc5-GFP, Emc7 deleted (Q12431 whole entry, stated change not applied, chain 6 of 4): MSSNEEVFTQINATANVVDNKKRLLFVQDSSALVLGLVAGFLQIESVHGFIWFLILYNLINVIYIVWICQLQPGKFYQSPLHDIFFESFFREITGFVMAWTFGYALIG

Consider “human EMC, endogenous, HEK293T (from UniProt Q8N766;Q15006;Q9P0I2;Q5J8M3;Q8N4V1;Q9BV81;Q9NPA0;O43402;Q5UCC4) (complex)”, for which the interaction with the hEMC relative to wt in assay [1] is 0.5 of wt.

B1: Spf1 with C-terminal triple HA-tag, endogenous locus, S. cerevisiae (natural protein)
chain: MTKKSFVSSPIVRDSTLLVPKSLIAKPYVLPFFPLYATFAQLYFQQYDRYIKGPEWTFVYLGTLVSLNILVMLMPAWNVKIKAKFNYSTTKNVNEATHILIYTTPNNGSDGIVEIQRVTEAGSLQTFFQFQKKRFLWHENEQVFSSPKFLVDESPKIGDFQKCKGHSGDLTHLKRLYGENSFDIPIPTFMELFKEHAVAPLFVFQVFCVALWLLDEFWYYSLFNLFMIISMEAAAVFQRLTALKEFRTMGIKPYTINVFRNKKWVALQTNELLPMDLVSITRTAEESAIPCDLILLDGSAIVNEAMLSGESTPLLKESIKLRPSEDNLQLDGVDKIAVLHGGTKALQVTPPEHKSDIPPPPDGGALAIVTKTGFETSQGSLVRVMIYSAERVSVDNKEALMFILFLLIFAVIASWYVWVEGTKMGRIQSKLILDCILIITSVVPPELPMELTMAVNSSLAALAKFYVYCTEPFRIPFAGRIDVCCFDKTGTLTGEDLVFEGLAGISADSENIRHLYSAAEAPESTILVIGAAHALVKLEDGDIVGDPMEKATLKAVGWAVERKNSNYREGTGKLDIIRRFQFSSALKRSASIASHNDALFAAVKGAPETIRERLSDIPKNYDEIYKSFTRSGSRVLALASKSLPKMSQSKIDDLNRDDVESELTFNGFLIFHCPLKDDAIETIKMLNESSHRSIMITGDNPLTAVHVAKEVGIVFGETLILDRAGKSDDNQLLFRDVEETVSIPFDPSKDTFDHSKLFDRYDIAVTGYALNALEGHSQLRDLLRHTWVYARVSPSQKEFLLNTLKDMGYQTLMCGDGTNDVGALKQAHVGIALLNGTEEGLKKLGEQRRLEGMKMMYIKQTEFMARWNQPQPPVPEPIAHLFPPGPKNPHYLKALESKGTVITPEIRKAVEEANSKPVEVIKPNGLSEKKPADLASLLLNSAGDAQGDEAPALKLGDASCAAPFTSKLANVSAVTNIIRQGRCALVNTIQMYKILALNCLISAYSLSIIYMAGVKFGDGQATVSGLLLSVCFLSISRGKPLEKLSKQRPQSGIFNVYIMGSILSQFAVHIATLVYITTEIYKLEPREPQVDLEKEFAPSLLNTGIFIIQLVQQVSTFAVNYQGEPFRENIRSNKGMYYGLLGVTGLALASATEFLPELNEAMKFVPMTDDFKIKLTLTLLLDFFGSWGVEHFFKFFFMDDKPSDISVQQVKIASK
Consider B1, for which the Spf1 to Emc5 ratio in the IP, percent of wt in assay [2] stood at 48%; in assay [3], 40%.

B2: yeast Spf1 E1087A, recombinant from insect cells (natural protein)
chain: MTKKSFVSSPIVRDSTLLVPKSLIAKPYVLPFFPLYATFAQLYFQQYDRYIKGPEWTFVYLGTLVSLNILVMLMPAWNVKIKAKFNYSTTKNVNEATHILIYTTPNNGSDGIVEIQRVTEAGSLQTFFQFQKKRFLWHENEQVFSSPKFLVDESPKIGDFQKCKGHSGDLTHLKRLYGENSFDIPIPTFMELFKEHAVAPLFVFQVFCVALWLLDEFWYYSLFNLFMIISMEAAAVFQRLTALKEFRTMGIKPYTINVFRNKKWVALQTNELLPMDLVSITRTAEESAIPCDLILLDGSAIVNEAMLSGESTPLLKESIKLRPSEDNLQLDGVDKIAVLHGGTKALQVTPPEHKSDIPPPPDGGALAIVTKTGFETSQGSLVRVMIYSAERVSVDNKEALMFILFLLIFAVIASWYVWVEGTKMGRIQSKLILDCILIITSVVPPELPMELTMAVNSSLAALAKFYVYCTEPFRIPFAGRIDVCCFDKTGTLTGEDLVFEGLAGISADSENIRHLYSAAEAPESTILVIGAAHALVKLEDGDIVGDPMEKATLKAVGWAVERKNSNYREGTGKLDIIRRFQFSSALKRSASIASHNDALFAAVKGAPETIRERLSDIPKNYDEIYKSFTRSGSRVLALASKSLPKMSQSKIDDLNRDDVESELTFNGFLIFHCPLKDDAIETIKMLNESSHRSIMITGDNPLTAVHVAKEVGIVFGETLILDRAGKSDDNQLLFRDVEETVSIPFDPSKDTFDHSKLFDRYDIAVTGYALNALEGHSQLRDLLRHTWVYARVSPSQKEFLLNTLKDMGYQTLMCGDGTNDVGALKQAHVGIALLNGTEEGLKKLGEQRRLEGMKMMYIKQTEFMARWNQPQPPVPEPIAHLFPPGPKNPHYLKALESKGTVITPEIRKAVEEANSKPVEVIKPNGLSEKKPADLASLLLNSAGDAQGDEAPALKLGDASCAAPFTSKLANVSAVTNIIRQGRCALVNTIQMYKILALNCLISAYSLSIIYMAGVKFGDGQATVSGLLLSVCFLSISRGKPLEKLSKQRPQSGIFNVYIMGSILSQFAVHIATLVYITTEIYKLEPRAPQVDLEKEFAPSLLNTGIFIIQLVQQVSTFAVNYQGEPFRENIRSNKGMYYGLLGVTGLALASATEFLPELNEAMKFVPMTDDFKIKLTLTLLLDFFGSWGVEHFFKFFFMDDKPSDISVQQVKIASK
Take B2: the EMC:Spf1 interaction, percent of wt in assay [4] amounted to 30%.

B3: yeast Emc3, subunit in the recombinant EMC:Spf1 complex (natural protein)
chain: MLLDDQLKYWVLLPISIVMVLTGVLKQYIMTLITGSSANEAQPRVKLTEWQYLQWAQLLIGNGGNLSSDAFAAKKEFLVKDLTEERHLAKAKQQDGSQAGEVPNPFNDPSMSNAMMNMAKGNMASFIPQTIIMWWVNHFFAGFILMQLPFPLTAKFKEMLQTGIICQDLDVRWVSSISWYFISVLGLNPVYNLIGLNDQDMGIQAGIGGPQGPQGPPQSQVDKAMHAMANDLTIIQHETCLDNVEQRVLKQYM
Turning to B3, the binding result in assay [5] is listed as “binds”.

B4: yeast Emc10, subunit in the recombinant EMC:Spf1 complex (natural protein)
chain: ADILQLSYSDDAKDAIPLGTFEIDSTSDGNVTVTTVNIQDVEVSGEYCLNAQIEGKLDMPCFSYMKLRTPLKYDLIVDVDEDNEVKQVSLSYDETNDAITATVRYPEAGPTAPVTKLKKKTKTYADKKASKNKDGSTAQFEEDEEVKEVSWFQKNWKMLLLGLLIYNFVAGSAKKQQQGGAGADQKTE
In the case of B4, the binding result in assay [5] was “binds”.

B5: yeast Emc4, subunit in the recombinant EMC:Spf1 complex (natural protein)
chain: MSEQEPYEWAKHLLDTKYIEKYNIQNSNTLPSPPGFEGNSSKGNVTRKQQDATSQTTSLAQKNQITVLQVQKAWQIALQPAKSIPMNIFMSYMSGTSLQIIPIMTALMLLSGPIKAIFSTRSAFKPVLGNKATQSQVQTAMFMYIVFQGVLMYIGYRKLNSMGLIPNAKGDWLPWERIAHYNNGLQWFSD
Consider B5, for which the binding result in assay [5] is on record as “binds”.
